Test results published in patent publication US20180282410A1 (Hoffmann-La Roche, published 2018).

B1: 7G2 anti-Robo 4 IgG (antibody, V domains shown)
VH: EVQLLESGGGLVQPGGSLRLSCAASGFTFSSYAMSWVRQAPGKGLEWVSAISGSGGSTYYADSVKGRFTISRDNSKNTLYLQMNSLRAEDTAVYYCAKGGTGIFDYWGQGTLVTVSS
VL: EIVLTQSPGTLSLSPGERATLSCRASQSVSSSYLAWYQQKPGQAPRLLIYGASSRATGIPDRFSGSGSGTDFTLTISRLEPEDFAVYYCQQGQLPPRTFGQGTKVEIK
notes: also called 7G2 IgG
B2: 01E06 anti-Robo 4 IgG (antibody, V domains shown)
VH: EVQLVESGGGLSQPGNSLKLSCEASGFTFRNYDMSWVRQAPGKGLEWVAYISSGGGPIYYVDAVKGRFTISRDNAKNLLFLQMNNLRSEDTAVYYCARDLADIGVFDYWGQGTMVTVSS
VL: DFKMTQSPDILSPSLGESVTITCQSSQNIYSNLAWYQQKPGEHPKLLIYTASILADGIPSRFTGSGSGTQFSLKISSLQPDDVANYYCQQYVYYRTFGPGTKLEIK
notes: also called 01E06 IgG
B3: 01F05 anti-Robo 4 IgG (antibody, V domains shown)
VH: QVQLKQSGAELVKPGASVKISCKTSVYTFTYGYMHWVEQKPGQGLEWIGRIDPDSGNSMYNQKFQGRATLTRDKSSSTVYMELRSLTSEDSAVYYCARSMRYSGYRDYALDLWGQGTQVTVSS
VL: QLVLTQSPSASASLGASVKLTCTLSSQHSSYGITWLQQHPDKAPKYVMYLKSDGSHTKGADIPDRFSGSSSGVHRYLSISNVQPEDEAIYFCVTYDSTHVFGSGTQLTVLG
notes: also called 01F05 IgG
B4: 01F09 anti-Robo 4 IgG (antibody, V domains shown)
VH: QIQLQESGPGLVKPSQSLSLTCSVTGYSISSGSLWTWIRQFPGNNLEWMGYISYAGGIDYNPSLTSRISITRDTSRNQFFLQLESVTTQDTATYYCATPGGYPFHFDYWGQGTMVTVSS
VL: QPVLTQSPSASASLGASVKLTCTLNSQFSTYNIGWYQQHRDKPPKYVMFVKGDGGHSKADGIPDRFSGSSSGADRYLTISNIQAEDEAIYFCGADYNNAGQYGCVFGSGTHFTVLG
notes: also called 01F09 IgG

molecular target: T1, human Robo 4 FN-like domain 2-Fc (human, UniProt P0DOX5 222-449 = IgG part); assay: SPR, IgG captured via anti-human Fab, domain-Fc as analyte
T1 construct: also called fibronectin-like domain 2
Procedure: (§1) All surface plasmon resonance (SPR) experiments are performed on a Biacore T100 at 25° C. with HBS-EP as running buffer (0.01 M HEPES pH 7.4, 0.15 M NaCl, 3 mM EDTA, 0.005% Surfactant P20 (Biacore)).
(§2) For determination of the epitope of the four analyzed anti-Robo 4 antibodies, domain variants of human Robo 4 (FN-like domain 1, FN-like domain 2, Ig-like domain 1 and Ig-like domain 2) were used. Anti-Robo 4 antibodies were captured for 60 s at 50 nM on a sensorchip surface with immobilized anti-human Fab specific antibody (GE Healthcare). Domain variants of human Robo 4 were passed at a concentration range of 0.46-1000 nM with a flow of 30 μl/min through the flow cells over 90 s. The dissociation was monitored for 120 s. Bulk refractive index differences were corrected for by subtracting the response obtained on reference flow cell as described above.

B1: no binding (tested: 0.46-1000 nM).
B2: no binding (tested: 0.46-1000 nM).
B4: no binding (tested: 0.46-1000 nM).

With B3 the Kd was 30.6 nM.

molecular target: T2, human Robo 4 Ig-like domain 1-Fc (human, UniProt P0DOX5 222-449 = IgG part); assay: as above
T2 construct: also called IgG-like domain 1
Procedure: as §1, §2

Binder B1 has a Kd of 151 nM.

B2: no binding (tested: 0.46-1000 nM).
B3: no binding (tested: 0.46-1000 nM).
B4: no binding (tested: 0.46-1000 nM).

molecular target: T3, human Robo 4 FN-like domain 1-Fc (human, UniProt P0DOX5 222-449 = IgG part); assay: as above
T3 construct: also called fibronectin-like domain 1
Procedure: as §1, §2

B1: no binding (tested: 0.46-1000 nM).
B2: no binding (tested: 0.46-1000 nM).
B3: no binding (tested: 0.46-1000 nM).
B4: no binding (tested: 0.46-1000 nM).

molecular target: T4, human Robo 4 Ig-like domain 2-Fc (human, UniProt P0DOX5 222-449 = IgG part); assay: as above
T4 construct: also called IgG-like domain 2
Procedure: as §1, §2

Going from B1 to B2, the Kd falls from 66.7 nM to 4.9 nM (14-fold). The second binds more tightly here.

B4 showed a Kd of 55.5 nM.

B3: no binding (tested: 0.46-1000 nM).

Molecular target: T5, murine (mu) Robo 4 ECD-PreS-Avi-His (mouse)
T5 construct: also called recombinant murine Robo 4; murine Robo 4
T5 chain: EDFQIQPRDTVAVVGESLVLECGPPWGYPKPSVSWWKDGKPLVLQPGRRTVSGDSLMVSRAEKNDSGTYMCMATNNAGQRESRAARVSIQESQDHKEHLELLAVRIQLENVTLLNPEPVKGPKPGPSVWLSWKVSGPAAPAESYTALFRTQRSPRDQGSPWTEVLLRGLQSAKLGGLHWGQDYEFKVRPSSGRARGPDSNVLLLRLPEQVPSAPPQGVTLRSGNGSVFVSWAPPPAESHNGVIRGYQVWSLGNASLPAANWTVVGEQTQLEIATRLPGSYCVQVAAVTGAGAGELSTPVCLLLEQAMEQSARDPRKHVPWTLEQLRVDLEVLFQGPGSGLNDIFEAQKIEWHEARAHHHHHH
Assay: SPR Biacore T100, IgG captured via anti-human Fab, antigen as analyte (affinity)
Procedure: as §1
Anti Robo 4 antibodies were captured for 60 s at 50 nM. Recombinant human, murine and cynomolgus Robo 4 were passed at a concentration range from 0.46-1000 nM with a flow of 30 μl/min through the flow cells over 90 s. The dissociation was monitored for 120 s. Bulk refractive index differences were corrected for by subtracting the response obtained on a reference flow cell. Here, the antigens were flown over a surface with immobilized anti-human Fab specific antibody on which HBS-EP has been injected rather than the antibodies.
(§3) Kinetic constants were derived using the Biacore T100 Evaluation Software (vAA, Biacore), to fit rate equations for 1:1 Langmuir binding by numerical integration.

Compared with B2, B3 is 16-fold lower in Kd: 166 nM for the first, 10.1 nM for the second.

Binder B4 has a Kd of 256 nM.

Going from B2 to B3, the koff falls from 0.0128 s⁻¹ to 0.00031 s⁻¹ (41-fold).

Binder B4 has a koff of 0.0307 s⁻¹.

Compared with B2, B3 is 2.5-fold lower in kon: 77100 M⁻¹ s⁻¹ for the first, 30800 M⁻¹ s⁻¹ for the second.

B4 gave a kon of 120000 M⁻¹ s⁻¹.

Molecular target: T6, recombinant cynomolgus Robo 4 ECD fused to AcTEV protease recognition site, Avi- and 6xHis-tag (cynomolgus)
T6 construct: Biotinylated in the avidity assay
T6 chain: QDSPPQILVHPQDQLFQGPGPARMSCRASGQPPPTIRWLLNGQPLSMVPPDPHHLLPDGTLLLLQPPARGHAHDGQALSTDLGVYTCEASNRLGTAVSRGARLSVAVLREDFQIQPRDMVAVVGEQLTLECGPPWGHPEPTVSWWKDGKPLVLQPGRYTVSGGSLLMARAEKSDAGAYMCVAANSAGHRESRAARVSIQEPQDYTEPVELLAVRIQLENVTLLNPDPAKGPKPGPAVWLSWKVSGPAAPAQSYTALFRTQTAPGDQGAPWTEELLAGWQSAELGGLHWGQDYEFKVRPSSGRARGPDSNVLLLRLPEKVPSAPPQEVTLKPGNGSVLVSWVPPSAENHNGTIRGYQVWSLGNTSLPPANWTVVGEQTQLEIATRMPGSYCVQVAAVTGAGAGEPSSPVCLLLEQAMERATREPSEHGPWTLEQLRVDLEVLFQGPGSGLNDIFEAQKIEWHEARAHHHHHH
Assay: SPR Biacore T100, biotinylated antigen on streptavidin chip, IgG as analyte (avidity)
Procedure: as §1
(§4) Determination of avidity was done by direct immobilization of biotinylated recombinant human, murine and cynomolgus Robo 4 on a Streptavidin sensor chip. Immobilization level ranged from 300 to 1000 RU. Anti-Robo 4 antibodies were passed through the flow cells for 220 s at 30 μl/min in a concentration range from 0.78-50 nM. Dissociation was monitored for 220 s. For the blank and the 25 nM injection dissociation was monitored for 600 s.
as §3

First: B1
Second: B2
The Kd of the first is 9400-fold higher: 0.94 nM for the first, 0.0001 nM for the second. The second binds more tightly here.

First: B3
Second: B4
The Kd of the first is 1.6-fold higher: 0.58 nM for the first, 0.37 nM for the second. The second binds more tightly here.

Compared with B1, B3 is 1.6-fold higher in koff: 0.000291 s⁻¹ for the first, 0.000475 s⁻¹ for the second.

For B4, the koff was 0.000817 s⁻¹.

First: B1
Second: B2
The kon of the first is 3.6-fold lower: 310000 M⁻¹ s⁻¹ for the first, 1.13e+06 M⁻¹ s⁻¹ for the second.

Compared with B3, B4 is 2.7-fold higher in kon: 822000 M⁻¹ s⁻¹ for the first, 2.22e+06 M⁻¹ s⁻¹ for the second.

Molecular target: T5, murine (mu) Robo 4 ECD-PreS-Avi-His
Assay: as above
Procedure: as §1, §4, §3

First: B2
Second: B3
The Kd of the first is 5.6-fold higher: 1.07 nM for the first, 0.19 nM for the second.

With B4 the Kd was 1.09 nM.

Going from B2 to B3, the koff falls from 0.000805 s⁻¹ to 7.32e-05 s⁻¹ (11-fold).

Work on B4 yielded a koff of 0.00115 s⁻¹.

First: B2
Second: B3
The kon of the first is 2-fold higher: 750000 M⁻¹ s⁻¹ for the first, 373000 M⁻¹ s⁻¹ for the second.

For B4, the kon was 1.05e+06 M⁻¹ s⁻¹.

Molecular target: T7, human (hu) Robo 4 extracellular domain (ECD)-precision site (PreS)-Avi-tag (Avi)-6x histidine (His) (human)
T7 construct: it holds the ECD with PreScission site, Avi-tag and His-tag; also called recombinant human Robo 4; human Robo 4
T7 chain: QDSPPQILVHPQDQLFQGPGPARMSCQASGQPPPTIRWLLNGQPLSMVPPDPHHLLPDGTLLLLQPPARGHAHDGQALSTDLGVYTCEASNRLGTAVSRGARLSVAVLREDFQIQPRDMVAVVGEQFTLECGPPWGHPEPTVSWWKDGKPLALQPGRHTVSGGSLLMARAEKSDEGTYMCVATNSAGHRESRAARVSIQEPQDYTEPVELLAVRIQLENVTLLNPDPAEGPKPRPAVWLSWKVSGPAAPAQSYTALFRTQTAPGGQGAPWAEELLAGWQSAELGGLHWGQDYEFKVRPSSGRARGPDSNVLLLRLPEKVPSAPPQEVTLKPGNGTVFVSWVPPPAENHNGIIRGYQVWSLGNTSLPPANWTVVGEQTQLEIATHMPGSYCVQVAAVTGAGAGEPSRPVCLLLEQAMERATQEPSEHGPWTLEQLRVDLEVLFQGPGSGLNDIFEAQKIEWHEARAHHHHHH
Assay: as above
Procedure: as §1, §4, §3

First: B1
Second: B2
The Kd of the first is 600-fold higher: 0.421 nM for the first, 0.0007 nM for the second. The second binds more tightly here.

Going from B3 to B4, the Kd falls from 0.093 nM to 0.018 nM (5.2-fold).

First: B1
Second: B2
The koff of the first is 120-fold higher: 0.000152 s⁻¹ for the first, about 1.25e-06 s⁻¹ for the second.

First: B3
Second: B4
The koff of the first is 1.6-fold higher: 6.13e-05 s⁻¹ for the first, 3.78e-05 s⁻¹ for the second.

Going from B1 to B2, the kon rises from 361000 M⁻¹ s⁻¹ to 1.76e+06 M⁻¹ s⁻¹ (4.9-fold).

Compared with B3, B4 is 3.2-fold higher in kon: 657000 M⁻¹ s⁻¹ for the first, 2.1e+06 M⁻¹ s⁻¹ for the second.
